Assay [1] addresses A*02:01/photoKV9 (human).
In assay [2] the target is A*03:01/photoKK9 (human).
Assay [3] addresses B*27:09/photoRL9 (human).
The target of assay [4] is B*27:05/photoRL9 (human).
Assay [5] has as its target A*03:01/photoKK9 (human). The source holds these as a separate data set.
Assay [6] has as its target B*27:09/photoRL9 (human). The source holds these as a separate data set.
Assay [7] addresses B*27:05/photoRL9 (human). This is another data set of the same source.
Assay [8] has as its target A*03:01/photoKK9 (human). The source holds these as a separate data set.
The target of assay [9] is A*03:01/photoKK9 (human). This is another data set of the same source.
The target in assay [10] is B*27:09/photoRL9 (human). The source holds these as a separate data set.
For assay [11], the target named is A*02:01/photoKV9 (human). The source holds these as a separate data set.
Assay [12] concerns the target A*03:01/photoKK9 (human). This is another data set of the same source.
Assay [13] deals with B*27:09/photoRL9 (human). The source holds these as a separate data set.
Assay [14] addresses B*27:05/photoRL9 (human). The source holds these as a separate data set.

Substance “ERp57-Tapasin conjugate (wild-type) (from UniProt O15533 21-398; P30101 25-504) (complex)” showed a fold increase of the peptide exchange rate (observed Kon of FITC-GV9, fluorescence polarisation) of 500 nM UV-exposed A*02:01/photoKV9 with equimolar ERp57-Tsn^WT against none in the assay with A*02:01/photoKV9 (human) [1] of 1.31 fold. In addition, in the assay with A*03:01/photoKK9 (human) [2], the fold increase of the peptide exchange rate (observed Kon of FITC-KK9, fluorescence polarisation) of 500 nM UV-exposed A*03:01/photoKK9 with equimolar ERp57-Tsn^WT against none came to 10.9 fold. In the assay with B*27:09/photoRL9 (human) [3], this substance showed a fold increase of the peptide exchange rate (observed Kon of FITC-RL9, fluorescence polarisation) of 500 nM UV-exposed B*27:09/photoRL9 with equimolar ERp57-Tsn^WT against none of 3.83 fold. The substance also displayed a fold increase of the peptide exchange rate (observed Kon of FITC-RL9, fluorescence polarisation) of 500 nM UV-exposed B*27:05/photoRL9 with equimolar ERp57-Tsn^WT against none in the assay with B*27:05/photoRL9 (human) [4] of 5.83 fold.

On to “ERp57-Tsn^K16G (from UniProt O15533 21-398; P30101 25-504) (complex)”, for which the relative catalytic activity in peptide exchange, (Kon mutant - Kon noTsn)/(Kon WT - Kon noTsn); UV-exposed A*03:01/photoKK9, FITC-KK9 with A*03:01/photoKK9 (human) [5] is 0.77 of WT. In addition, the relative catalytic activity in peptide exchange, (Kon mutant - Kon noTsn)/(Kon WT - Kon noTsn); UV-exposed B*27:09/photoRL9, FITC-IF9 with B*27:09/photoRL9 (human) [6] was 0.95 of WT. The relative catalytic activity in peptide exchange, (Kon mutant - Kon noTsn)/(Kon WT - Kon noTsn); UV-exposed B*27:05/photoRL9, FITC-RL9 with B*27:05/photoRL9 (human) [7] is 0.86 of WT. Also, the relative catalytic activity in peptide exchange; UV-exposed A*03:01/photoKK9, FITC-KK9 (second printing, other number) with A*03:01/photoKK9 (human) [8] was 0.73 of WT.

Turning to “ERp57-Tsn^K16L (from UniProt O15533 21-398; P30101 25-504) (complex)”, in the assay with A*03:01/photoKK9 (human) [9], the relative catalytic activity in peptide exchange against ERp57-Tsn^WT; UV-exposed A*03:01/photoKK9, FITC-KK9 was 0.93 of WT. The relative catalytic activity in peptide exchange against ERp57-Tsn^WT; UV-exposed B*27:09/photoRL9, FITC-IF9 in the assay with B*27:09/photoRL9 (human) [10] was 1.26 of WT.

As for “ERp57-Tsn^L18G (from UniProt O15533 21-398; P30101 25-504) (complex)”, the relative catalytic activity in peptide exchange, (Kon mutant - Kon noTsn)/(Kon WT - Kon noTsn); UV-exposed A*03:01/photoKK9, FITC-KK9 with A*03:01/photoKK9 (human) [5] is 0.36 of WT. Further, the relative catalytic activity in peptide exchange, (Kon mutant - Kon noTsn)/(Kon WT - Kon noTsn); UV-exposed B*27:09/photoRL9, FITC-IF9 with B*27:09/photoRL9 (human) [6] is 0.04 of WT. In addition, in the assay with B*27:05/photoRL9 (human) [7], the relative catalytic activity in peptide exchange, (Kon mutant - Kon noTsn)/(Kon WT - Kon noTsn); UV-exposed B*27:05/photoRL9, FITC-RL9 was 0.05 of WT.

In turn, “TAPBPR (TAP-binding protein-related protein) (from UniProt Q9BX59 19-405) (natural protein)” showed a fold increase of the peptide exchange rate (observed Kon of FITC-GV9, fluorescence polarisation) of 500 nM UV-exposed A*02:01/photoKV9 with equimolar TAPBPR against none with A*02:01/photoKV9 (human) [11] of 30.9 fold. In the assay with A*03:01/photoKK9 (human) [12], this substance yielded a fold increase of the peptide exchange rate (observed Kon of FITC-KK9, fluorescence polarisation) of 500 nM UV-exposed A*03:01/photoKK9 with equimolar TAPBPR against none of 34.3 fold. For the same substance, the fold increase of the peptide exchange rate (observed Kon of FITC-RL9, fluorescence polarisation) of 500 nM UV-exposed B*27:09/photoRL9 with equimolar TAPBPR against none with B*27:09/photoRL9 (human) [13] amounted to 3.13 fold. Besides, in the assay with B*27:05/photoRL9 (human) [14], the fold increase of the peptide exchange rate (observed Kon of FITC-RL9, fluorescence polarisation) of 500 nM UV-exposed B*27:05/photoRL9 with equimolar TAPBPR against none amounted to 1.48 fold.

The values are drawn from publication PMC8271027.
